We go through 6 substances from article PMC6520106.

In assay [1] the target is Rab6 (Homo sapiens) (UniProt P20340). As to conditions: cited from earlier work.
For assay [2], the target named is BicD2-CTD (C-terminal cargo binding domain of human BicD2, residues 715-804) (human). Description: SEC-MALS.
For assay [3] the target is unchanged. The assay can be described thus: ITC. In general terms: ITC needs no label: the signal is the heat of the interaction.

UniProt P20340, sequence (P20340 2-208): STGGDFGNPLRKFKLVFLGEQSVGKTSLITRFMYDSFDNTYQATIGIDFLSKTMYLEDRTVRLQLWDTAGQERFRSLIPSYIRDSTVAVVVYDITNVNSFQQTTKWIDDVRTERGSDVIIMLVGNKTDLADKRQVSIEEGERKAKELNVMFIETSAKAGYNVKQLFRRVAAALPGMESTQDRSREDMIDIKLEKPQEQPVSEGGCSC

One may read the Kd as a measure of binding affinity in units of concentration. Regarding BicD2 (from UniProt Q8TD16), the Kd in assay [1] was 1 µM.

As usually defined, the stoichiometry N is a count of units in the complex or per binding partner. “BicD2-CTD (C-terminal cargo binding domain of human BicD2, residues 715-804) (domain or fragment)” showed a stoichiometry N in assay [2] of 2.

In assay [3], “Nup358-RBD2 (residues 2006-2443 of human Nup358) (domain or fragment)” displayed a Kd of 0.5 µM and a dH of -14.9 kcal/mol. Also, the stoichiometry N (binder per target (2:2 complex)) in assay [2] came out at 1.

As for “Nup358-RBD2/RanGTP complex (from UniProt P62826 1-216)”, in assay [3], the Kd amounted to 3.8 µM and the dH was -12.8 kcal/mol.

In assay [3], “Rab6^GTP (full-length human Rab6a Q72L, GTP-locked) (from UniProt P20340 1-208) (natural protein)” had a Kd of 12.6 µM. Also, in assay [2], the stoichiometry N (binder per target (2:2 complex)) came out at 1.

As to “Rab6^GTPmin (human Rab6a Q72L, residues 13-174) (from UniProt P20340 13-174) (domain or fragment)”, the dissociation constant Kd in assay [3] was determined as 12 µM.
